Experimental data: patent US20050064433

Test system: T1, SbfI restriction endonuclease (R.SbfI) (Streptomyces species Bf-61)
T1 sequence: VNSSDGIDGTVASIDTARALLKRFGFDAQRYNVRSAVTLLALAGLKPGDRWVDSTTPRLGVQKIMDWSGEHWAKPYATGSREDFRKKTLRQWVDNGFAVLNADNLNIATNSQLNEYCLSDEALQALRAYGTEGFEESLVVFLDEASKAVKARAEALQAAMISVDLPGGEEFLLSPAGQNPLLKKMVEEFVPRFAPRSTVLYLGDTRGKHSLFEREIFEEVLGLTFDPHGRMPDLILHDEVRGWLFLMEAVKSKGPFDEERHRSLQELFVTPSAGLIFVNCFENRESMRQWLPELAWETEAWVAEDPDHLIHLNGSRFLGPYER
Experiment: cleavage_in_vitro
Conditions: recombinant cell extract, serial dilutions 1x to 1/64; yield more than about 10^5 units per gram wet E. coli cells; recognition sequence not given

For “lambda DNA (printed as "I DNA") restriction substrate”, the activity (U/g wet cells) was 100000.
